In the nanobody polyreactivity screen of Harvey et al. (2022):

Assay: yeast display, Sf9 membrane polyspecificity reagent, FACS + sequencing; frameworks hold sequencing errors
Method in brief: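 Galactose-induced (36–48 hours) yeast carrying a synthetic nanobody display library were exposed to 10% biotinylated, detergent-solubilized Sf9 membrane reagent at 4 °C for 1 hour. FACS followed streptavidin microbead enrichment, using low and high (top ~1%) gates for expression (anti-HA) and reagent binding (streptavidin). Colony PCR, MiSeq 2 × 250 sequencing and CDR-length filtering followed. Labels for polyreactivity reflect the gate of origin.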

Sequence	polyreactivity (PSR sort gate)
QVQLVESGGGLVQAGGSLRLSCAASGSIFLGNALGWYRQAPGKERELVAAISRSGGRTYYADSVKGRFTISRDNAKNTVYLQMNSLKPEDTAVYYCAARSYGIYYAKEFYYWGQGTQVTVSS	high polyreactivity
QVQLVESGGGLVQAGGSLRLSCAASGSIFLGNAMGWYRQAPGKERELVAAISGGDSTNYADSVKGRFTISRDNAKNTVYLQMNSLKPEDTAVYYCAKDRPQEYDYWGQGTQVTVSS	low polyreactivity
QVQLVESGGGLVQAGGSLRLSCAASGSIFLGNAMGWYRQAPGKERELVAAITSRGGRTYYADSVKGRFTISRDNAKNTVYLQMISLKPEDTAVYYCAADVSRPRAGFNYWGQGTQVTVSS	high polyreactivity
QVQLVESGGGLVQAGGSLRLSCAASGSIFLGNAMGWYRQAPGKERELVAAITWSGGSTTYADSVKGRFTISRDNAKNTVYLQMNSLKREDTAVYYCNASIYQRYDYWGQGTQVTVSS	low polyreactivity
QVQLVESGGGLVQAGGSLRLSCAASGSIFLGYAMGWYRQAPGKERELVAAISWTGGSTYYADSVKGRFTISRDNAKNTVYLQMNSLTPEDTAVYYCAAEDQYGFDYWGQGTQVTVYS	high polyreactivity
QVQLVESGGGLVQAGGSLRLSCAASGSIFLGYTMGWSRQAPGKERELVAAINSSGGSTYYADSVKGRFTISRDNAKNTVYLQMNSLKPEDTAVYYCAVANSILLFDSWGQGTQVTVSS	low polyreactivity
QVQLVESGGGLVQAGGSLRLSCAASGSIFLGYTMGWYRQAPGKERELVAAINSSGGSTYYADSVKGRFTISRDNAKNTVYLQMNSLKPEDTAVYYCADANSILLFDSWGQGTQVTVSS	low polyreactivity
QVQLVESGGGLVQAGGSLRLSCAASGSIFLGYVMGWSRQAPGKERELVAAITNSGGSTYYADSVKGRFTISRDNAKNTVYLQINSLKPEDTAVYYCAADSITSKNQGLDYDYWGQGTQVTVSS	low polyreactivity
QVQLVESGGGLVQAGGSLRLSCAASGSIFLLNAMGWYRQAPGKERELVARIRINGGSTYYADSVKGRFTISRDNAKNTVYLKMNSLKPEDTAVYYCAADDTGPYSNWYDYWGQGTQVTVSS	low polyreactivity
QVQLVESGGGLVQAGGSLRLSCAASGSIFLLYAMGGYRQAPGKERELVAAITRGGGSTYYADSVKGRFTISRDNAKNTVYLQMNSLKPEDTAVYYCAKGFQNHNGRLVVAYDYWGQGTQVTVSS	low polyreactivity
QVQLVESGGGLVQAGGSLRLSCAASGSIFLLYAMGWYRQAPGKERELVAAISYSGGATYYADSVKGRFTISRDNAKYTVYLQMNILKPEDTAVYYCAAEAYDDYDYWGQGTQVTVSS	low polyreactivity
QVQLVESGGGLVQAGGSLRLSCAASGSIFLLYAMGWYRQAPGKERELVARISWSGDNTRYADSVKGRFTISRDNAKNTVYLQMNSLKPEDTAVYYCNAYYFYGQWKGYDYWGQGTQVTVSS	low polyreactivity
QVQLVESGGGLVQAGGSLRLSCAASGSIFLPYAMGWYRQAPGKERELVAAIDTSSGSTYYADSVKGRFTISRDNAKNTVYLQMNSLKPEDTAVYYCNADYWVQGDDWLLYDYWGQGTQVTVSS	low polyreactivity
QVQLVESGGGLVQAGGSLRLSCAASGSIFLQNAMGWYRQAPGKERELVARITTSGGSTYYADSVKGRFTISRDNAKNTVYLPMNSQKPEDTAVYYCAVRSRRQRGGIRGFDYGGQGTQVTVSS	high polyreactivity
QVQLVESGGGLVQAGGSLRLSCAASGSIFLQYAMAWYRQAPGKERELVAAISWSGGSTYYAYSVKGRFTISRDNAKNTVYLQMNSLKPEDTAVYYCAAPITPYSHYRMDYWGQGTQVTVSS	low polyreactivity
QVQLVESGGGLVQAGGSLRLSCAASGSIFLRNAMGWYRQAPGKERELVAAITYSSGSTYYADSVKGRFTISRDNAKNTVYLQMNSLKPEDTAVYYCAATSRSSRRYYYWGQGTQVTVSS	high polyreactivity

Sequence	polyreactivity (PSR sort gate)
QVQLVESGGGLVQAGGSLRLSCAASGSIFLRYAMGWYRQAPGKERELVAAITTGGGSTYYADSVKGRFTISRDNAKNTVYLQMNSLKPEDTAVYYCAARIRQNPGGDNSWGQGTQVTVSS	low polyreactivity
QVQLVESGGGLVQAGGSLRLSCAASGSIFLSNARGWYIQAPGKERELVADIDWTRGDTYYADSVKGRFTISRDNAKNTVYLQMNSLKPEDTAVYDCAADYGYRNLLTEYGYWGQGTEVTVSS	low polyreactivity
QVQLVESGGGLVQAGGSLRLSCAASGSIFLSYAMGWYRQAPGKERELVAAISGRGGSTYYADSVKGRFTISRDNAKNTGYLQMNSLKPEDTAVNYCASEQWGWYWYDYWGQGTQVTVSS	high polyreactivity
QVQLVESGGGLVQAGGSLRLSCAASGSIFLTYAMGWYRQAPGKERELVAAISSSVGSTNYADSVKGRFTISRDNAKNTVYLQMNSLKPEDTAVYYCNATGVQYFLYGYWGQGTQVTVSS	low polyreactivity
QVQLVESGGGLVQAGGSLRLSCAASGSIFLVNAMGWYRQAPGKERELVAAINSGGSTYYADSVKGRFTISRDNAKNTVYLQMNSLKPEDTAVYYCAADFWLKVWQDTDYDYDYWGQGTQVTVSS	low polyreactivity
QVQLVESGGGLVQAGGSLRLSCAASGSIFLVNAMGWYRQAPGKERELVAAITYGGDSTYYADSVKGRFTISRDNAKNTVYLQMNSLKPEDTAVYYCAADAWVGWHDEYDYWGQGTQVTVSS	low polyreactivity
QVQLVESGGGLVQAGGSLRLSCAASGSIFLVYAMGWYRQAPGKERELVAAISRSGRTYADSVKGRFTISRDNAKNTVYLQMNSLKPEDTAVYYCAAGTKRRFEGDYWGQGTQVTVSS	high polyreactivity
QVQLVESGGGLVQAGGSLRLSCAASGSIFLWNAMGWYRQAPGKERELVAAITWRGGRTSYADSVKGRFTISRDNAKNTVYLQMNSLKPEDTAVYYCAKEAHPPWTGQDVFRSYDYWGQGTQVTVSS	low polyreactivity
QVQLVESGGGLVQAGGSLRLSCAASGSIFLYNAMGWYRQAPGKERELVADITTTGGSTYYADSVKGRFTISRDNAKNTVYLQMNSLKPEDTAVYYCNVDYWGQGTQVTVSS	low polyreactivity
QVQLVESGGGLVQAGGSLRLSCAASGSIFLYYAMGWYRQAPGKERELVAAISGRAGSTYYADSVKGRFTISRDNAKNTVYLQMNSLKPEDTAVYYCAAGYWQGYPGFKYYWGQGTQVTVSS	low polyreactivity
QVQLVESGGGLVQAGGSLRLSCAASGSIFLYYTMGWYRQEPGKERELVAAITWSGSSTYYADSVKGRFTISRDNAKNTVYLQMNSLKPEDTAVYYCATRYRYRYWGQGTQVTVSS	high polyreactivity
QVQLVESGGGLVQAGGSLRLSCAASGSIFNAYVMGWYRQAPGKERELVAAISRSGGRTYYADSVKGRFTISRDNAKNTVYLQMNSLKPEDTAVYYCAADYGGPYGQLDYWGQGTQVTVSS	high polyreactivity
QVQLVESGGGLVQAGGSLRLSCAASGSIFNGYAMGWYRQAPGKERELVADIRSGGSTYYADSVKGRFTISRDNAKYTVYLQMNSLKPEDTAVYYCAADTITDGYDYWGQGTQVTVSS	low polyreactivity
QVQLVESGGGLVQAGGSLRLSCAASGSIFNGYAMGWYRQAPGKVRELVAAISWNGGRTYYADSVKGRFTISRDNAKNTVYLQKNSLKPEDTAVYYCNKVSGYDVDYWGQGTQVTVSS	high polyreactivity
QVQLVESGGGLVQAGGSLRLSCAASGSIFNHYAMGWYRQAPGKERELVAAISGSGGSTYYADSVKGRFTISRDNAQNTVYLQMYSLKPEDTAVYYCAARILRHWVSAEYYWGQGTQVTVSS	low polyreactivity
QVQLVESGGGLVQAGGSLRLSCAASGSIFNHYAMGWYRQAPGKERELVAVIPSGGSTNYADSVKGRFTISRDNAKNTVYLQMNSLKPEDTAVYYCAADTYLSAVDYYGWAHDYWGQGTQVTVSS	low polyreactivity
